Paper PMC7430671
Substitutions are numbered along the chain they refer to.

Key:
[1] = target: T1, RapZCTDquad K270A;K281A;R282A;K283A (Escherichia coli) (UniProt P0A894); experiment: EMSA; settings: EMSA on non-denaturing PAA gels, phospho-imaging; buffer, pH and temperature not given here (as in Göpel 2016; Durica-Mitic and Görke 2019)
T1 sequence: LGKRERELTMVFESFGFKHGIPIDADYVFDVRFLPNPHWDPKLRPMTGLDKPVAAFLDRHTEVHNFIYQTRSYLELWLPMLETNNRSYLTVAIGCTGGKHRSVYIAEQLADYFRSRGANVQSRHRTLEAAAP

[2] = target: T2, RapZ1-279 (purified) del280-284 (Escherichia coli) (UniProt P0A894); experiment: EMSA; settings: EMSA on non-denaturing PAA gels, phospho-imaging; buffer, pH and temperature not given here (as in Göpel 2016; Durica-Mitic and Görke 2019)
T2 sequence: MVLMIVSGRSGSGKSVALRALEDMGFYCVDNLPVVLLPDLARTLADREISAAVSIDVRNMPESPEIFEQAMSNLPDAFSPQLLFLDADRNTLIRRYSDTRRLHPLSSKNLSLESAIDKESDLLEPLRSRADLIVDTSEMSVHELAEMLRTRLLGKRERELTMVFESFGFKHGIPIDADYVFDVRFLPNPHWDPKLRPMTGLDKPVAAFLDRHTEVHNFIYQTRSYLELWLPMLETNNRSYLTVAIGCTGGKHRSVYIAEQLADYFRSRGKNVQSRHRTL

[3] = target: T3, RapZquad (purified) K270A;K281A;R282A;K283A (Escherichia coli) (UniProt P0A894); experiment: EMSA; settings: EMSA on non-denaturing PAA gels, phospho-imaging; buffer, pH and temperature not given here (as in Göpel 2016; Durica-Mitic and Görke 2019)
T3 sequence: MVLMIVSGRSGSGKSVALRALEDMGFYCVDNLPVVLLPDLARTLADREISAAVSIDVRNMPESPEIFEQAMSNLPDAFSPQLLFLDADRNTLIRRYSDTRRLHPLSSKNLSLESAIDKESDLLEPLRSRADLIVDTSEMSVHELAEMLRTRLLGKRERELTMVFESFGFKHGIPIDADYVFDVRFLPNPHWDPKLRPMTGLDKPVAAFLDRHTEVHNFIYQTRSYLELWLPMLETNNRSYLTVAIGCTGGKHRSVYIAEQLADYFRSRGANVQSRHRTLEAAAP

[4] = target: T4, RapZCTD lacking the 5 C-terminal residues del280-284 (Escherichia coli) (UniProt P0A894); experiment: EMSA; settings: EMSA on non-denaturing PAA gels, phospho-imaging; buffer, pH and temperature not given here (as in Göpel 2016; Durica-Mitic and Görke 2019)
T4 sequence: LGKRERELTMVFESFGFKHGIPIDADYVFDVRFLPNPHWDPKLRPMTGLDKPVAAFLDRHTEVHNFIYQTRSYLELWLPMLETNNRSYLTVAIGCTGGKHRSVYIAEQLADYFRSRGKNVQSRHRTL

[5] = target: T5, RapZCTD (Escherichia coli) (UniProt P0A894); experiment: EMSA; settings: EMSA on non-denaturing PAA gels, phospho-imaging; buffer, pH and temperature not given here (as in Göpel 2016; Durica-Mitic and Görke 2019)
T5 sequence: T1 sequence with A118K, A129K, A130R, A131K

[6] = target: RapZ 1-279 T278G L279G (T25 fusion); experiment: BACTH assay (self-interaction; β-galactosidase activity); settings: bottom panel; same RapZ1-279 variant fused to T18 and to T25; mean ± SD, n ≥ 2; parent: est. 4100; read off a plot

Sequence of RapZ_(1–279), BACTH fusion (P0A894 whole entry T278G/L279G, looked up, the tested form may be a part): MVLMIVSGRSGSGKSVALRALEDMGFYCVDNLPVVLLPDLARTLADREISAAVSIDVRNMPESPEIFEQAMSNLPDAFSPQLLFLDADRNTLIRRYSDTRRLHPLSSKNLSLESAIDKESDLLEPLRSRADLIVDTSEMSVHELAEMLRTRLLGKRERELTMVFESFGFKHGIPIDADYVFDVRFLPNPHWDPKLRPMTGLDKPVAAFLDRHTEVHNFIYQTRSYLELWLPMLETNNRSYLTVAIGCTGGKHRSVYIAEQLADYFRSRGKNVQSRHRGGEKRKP

response [6] | Substance | binding [1] | binding [2] | binding [3] | binding [4] | binding [5]
– | GGGAGAGUAGAUGCUCAUUCCAUCUCUUAUGUUCGCCUUAGUGCCUCAUAAACUCCGGAAUGACGCAGAGCCGUUUACGGUGCUUAUCGUCCACUGACAGAUGUCGCUUAUGCCUCAUCAGACACCAUGGACACAACGUUGAGUGAAGCACCCACUUGUUGUCAUACAGACCUGUUUUAACGCCUGCUCCGUAAUAAGAGCAGGCGUUUUUUU [GlmZ sRNA (in vitro transcript)] | no binding | binds more weakly | no binding | no binding | binds
3600 Miller units | RapZ_(1–279), BACTH fusion (from UniProt P0A894) T278G; L279G | – | – | – | – | –
